From the RNAGym collection of RNA variant scans (doi:10.7554/elife.90254)

B1: LINE1-mini (parent)
chain: GGCAGAGCUCAACACAGCGUGGCAAAGUGGCUGUGGCUAGACUGCC

Variants of: B1
Assay: self-cleavage, relative activity (ratio to wild type); higher = more cleavage; in vitro, sequencing; the parent is a self-cleaving ribozyme

Variant	self-cleavage
C8A U20C	0.15
C8A U20G	0.15
C8G C15U	0.1
C8G C15A	0.11
C8G C15G	0.05
C8A A12G	0.11
C8A A12C	0.04
C8A A12U	0.23
C8G A11G	0.03
C8G A11U	0.03
C8G A11C	0.02
C8A G17C	0.22
C8A G17U	0.27
C8A G17A	0.3
C8A G36C	0.29
C8A G36A	0.65
C8A G36U	0.22
C8A A14U	0.25
C8A A14G	0.56
C8A A14C	0.18
G7C U43C	0.33
G7C U43A	0.15
G7C U43G	0.05
C8A A41U	0.48

Variant	self-cleavage
C8A A41G	0.29
C8A A41C	0.36
C8G A41U	0.25
C8G A41C	0.14
C8G A41G	0.13
G7C U9A	0.09
G7C U9C	0.03
G7C U9G	0.28
G7U A11G	0.03
G7U A11U	0.04
G7U A11C	0.02
C8A C15A	0.37
C8A C15U	0.23
C8A C15G	0.22
C8G C42U	0.09
C8G C42A	0.05
C8G C42G	0.06
G7U C45A	0.16
G7U C45U	0.12
G7U C45G	0.29
C8G C31A	0.06
C8G C31G	0.05
C8G C31U	0.11
G7C U28C	0.1

Variant	self-cleavage
G7C U28A	0.18
G7C U28G	0.08
C8A G22A	0.18
C8A G22U	0.24
C8A G22C	0.17
C8G C46U	0.09
C8G C46A	0.05
C8G C46G	0.11
C8A A25G	0.23
C8A A25C	0.45
C8A A25U	0.36
C8G C10U	0.06
C8G C10G	0.02
C8G C10A	0.03
G7C U38A	0.07
G7C U38G	0.02
G7C U38C	0.1
C8A A26U	0.3
C8A A26C	0.26
C8A A26G	0.21
C8A U28G	0.08
C8A U28C	0.25
C8A U28A	0.17
G7U A25U	0.1

Variant	self-cleavage
G7U A25G	0.1
G7U A25C	0.06
C8A C23U	0.27
C8A C23G	0.22
C8A C23A	0.25
C8A A16G	0.22
C8A A16U	0.23
C8A A16C	0.25
C8G C13U	0.18
C8G C13A	0.11
C8G C13G	0.04
G7U	0.1
G7U U38G	0.03
G7U U38C	0.05
G7U U38A	0.04
C8G A26C	0.14
C8G A26G	0.07
C8G A26U	0.11
G7U G22A	0.08
G7U G22C	0.04
G7U G22U	0.14
G7U A14U	0.11
G7U A14G	0.15
G7U A14C	0.09

Variant	self-cleavage
G7C U20G	0.12
G7C U20A	0.06
G7C U20C	0.15
C8A G19A	0.38
C8A G19U	0.11
C8A G19C	0.1
G7U U20A	0.06
G7U U20C	0.07
G7U U20G	0.08
C8A G30A	0.42
C8A G30C	0.26
C8A G30U	0.59
G7U C42U	0.12
G7U C42A	0.06
G7U C42G	0.12
C8G	0.13
C8A	0.29
G7U G36C	0.09
G7U G36A	0.11
G7U G36U	0.05
C8A C37A	0.12
C8A C37U	0.17
C8A C37G	0.1
G7U U43C	0.18

Variant	self-cleavage
G7U U43A	0.11
G7U U43G	0.32
C8G C23U	0.1
C8G C23A	0.1
C8G C23G	0.08
G7U G40C	0.12
G7U G40A	0.16
G7U G40U	0.18
C8A G35U	0.44
C8A G35C	0.16
C8A G35A	0.42
C8A C42G	0.19
C8A C42U	0.24
C8A C42A	0.29
G7U C13G	0.08
G7U C13A	0.14
G7U C13U	0.15
G7C U34A	0.05
G7C U34C	0.06
G7C U34G	0.02
G7U G35C	0.08
G7U G35A	0.1
G7U G35U	0.1
G7U G17A	0.08

Variant	self-cleavage
G7U G17C	0.07
G7U G17U	0.12
C8G C45U	0.06
C8G C45A	0.08
C8G C45G	0.08
C8G A39C	0.17
C8G A39U	0.04
C8G A39G	0.06
C8G C37U	0.05
C8G C37G	0.09
C8G C37A	0.04
G7U G30C	0.06
G7U G30A	0.11
G7U G30U	0.1
G7U C31U	0.1
G7U C31A	0.09
G7U C31G	0.06
G7U C8U	0.34
G7U C8A	0.3
G7U C8G	0.32
G7C G33C	0.08
G7C G33U	0.07
G7C G33A	0.06
